assay: yeast display, Sf9 membrane polyspecificity reagent, FACS + sequencing; frameworks hold sequencing errors
In short: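 In a synthetic yeast display library (Saccharomyces cerevisiae BJ5465), nanobody expression was induced with galactose for 36–48 hours. FACS gates were set low and high (top ~1%) using anti-HA fluorescence for expression and streptavidin fluorescence for binding of the Sf9 membrane reagent. Each polyreactivity label is drawn from the gate of origin.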

Sequence | polyreactivity (PSR sort gate)
QVQLVESGGGLVQAGGSLRLSCAASGRNFEKNAMGWSRQAPGKERELVASIDFRGGRTYADSVKGRFTISRDNAKNTVYLQMISLKPEDTAVYYCAKRQVGRKYVRYEYDSWGHGTQVTVSS | low polyreactivity
QVQLVESGGGLVQAGGSLRLSCAASGSIFGRYVMGWYRQAPGKERELVAAISGSGTSTYYADSVKGRFTISRDNAKNTVFLQMNSLKPEDTAVYYCAARDIKSSHDYDYWGQGTQVTVSS | low polyreactivity
QVQLVESGGGLVQAGGSLRLICAASGNTFGYNAMVWYRQAPGKERELVASITLSGGSTYYADSVKGRFTISRDTAKNTVYLQMFCLKPEDTAVYYCNADTFQWWDIADVYVIVKYGYWGQGTQVTVSS | low polyreactivity
QVQLVESGGGLVQAGGSLRLSCAASGRTFGRYAMGWSRQAPGKERELVAAIRYTGGSTYADSVKGRFTISRDNAKNTVYLQMNSLKPEDTAVYYCAVLFYNNFGYWGQGTQVTVSS | low polyreactivity
QVQLVESGGGLVQAGGSLRLSCAASGRISWVYAKGWYRQPPGKERELVAAITFSGGSTYYADSVKGRFTISSDNEKNTVYLQMNSLKPEDTAVYYCAADVLAIYSHRYYRYDSWGQGTQVTVSS | high polyreactivity
QVQLVESGGGLVQAGGSLRLSCAASGTISASYAMGWYRQATGKERELVAAISSGGDTNYADSVKGRFTISRDNAKNTVYLQMNSLKPEDTAVYYCAADTDSDQGSEYDYWGQGTQVTVSS | low polyreactivity
QVQLVESGGGLVQAGGSLRLSCDASGRIISYNAMGWYRQAPGKERELVAAISWGGGSTYYADSVKGRFTISRDNAKNTVYLQMNSLKPEDTAVYYCAKGWYRIKRNDYWGQGTQVTVSS | low polyreactivity
QVQLVESGGGLVQAGGSLRLSCAAYGSNFVFNAMGWYRQAPGKERELVAAISNGDGTNYADSVKGRFTISRDNAKNTVYFQINSLKPEDTAVYYCAAVWTTQIVIEYDYWGQGSQVTVSS | low polyreactivity
QVQLVESGGGLVQAGGSLRLSCAASGISFNGNAMGWYRQAPGKERELVAAISGSGGSTYYADSVKGRFTISRDNAKNSVYLQMNSLKQEDTAVYYCNALYGRRVYVGYDYWGQGSQVTVSS | high polyreactivity
QVQLVESGGGLVQAGGSLRLSCAASGSTFRYNAMGWYRQAPWKERELVAAITSGGSTYYADSVKGRFTISRDNAKNTVYLQMNSLKPEDTAVYYCAALWQSRWYKMDYWGQGTQVTVSS | high polyreactivity
QVQLVESGGGLVQAGGSLRLSCAASGFTFPYYAMGWSRQAPGKERELVAAITSSGTITYYADSVKGRFTISRDNAKNTVYLQMNSLKPEDTAVYYCAARFSSTRYLQWYYYWGQGTQVTVSS | high polyreactivity
QVQLVESGGGIVQAGGSIRLRCAASGIIFVVNDMGWYRQAPGKERELVADISDSGGSTNYADSVKGRFTISRDNAKNTVYLQMNRLKPEDTAVYYCAADSADPTEYDYWGQGSQVTVSS | low polyreactivity
QVQLVESCGGLVQAGGSLRLSCSASGSTFVINAMGWYRQAPGKERELVAAISSGDNTNYADSVKGRFTISRDNAKNTVYLQMNSLKPEETAVYYCAALPAYLDYGARRSMDYWGQGTQVTVSS | low polyreactivity
QVQLVESGGGLDQAGGSLRLSCAASGITFTSYAMGWYRQAPGTEREFVAAISWTDTSTYYADSVKGRFTISRDNAKNTVYLQMNSLKPEDTAVYYCADEYEVGYFGYEYWGQGTQVTVSS | high polyreactivity
QVQLVESGGGLVQAGGSLRLSCAASGRIFVVYAMGWYRQAPGKERELVATITSGGSTYYADSVKGRFTISRDNAKNTVYLQMNSLKPEDTAVYYCAAYAYIFLDWGGYPYYLYEYDYWGQGTQVTVSS | low polyreactivity
QDQLVESGGGLLQAGGSLRLSCAASGRTFRYYAMGWYRQAPGKERELVAAISWSGSSTYYADSVKGRFTISRDNAKNTVYLQMNSLKAEDTAVYDCNAKGVRGKYFDYSRVSAYDYWGQGTQVTVSS | low polyreactivity
QVQLVESGGGLVQAGGSLRLSCAASGLIFYPYAMGWYRQAPGKERELVAGISSSGDSTYYADSVKGRFTISRDNAKNTVYLQMNSLKPDDTAVYYCNTGWDPYGYDYWGQGTQVTVSS | low polyreactivity
QVQLVESGGGLVQAGGSLRLSCAASGSIFGYYAMGWYRQAPGKERELVAVITSSGGGTYYADSVKGRFTISRDNAKNTVYLQMNSLKPEDTAVYYCAKLGTRRYDSWGQGTQVTVSS | high polyreactivity
QVQLVDSGGGLVQAGGSLRLSCGASGLIFKYNVMGWYRQAPGKERELVAAITWGGTRTYYADSVKGRFTISRDTAKNTVYLQMNSLKPEDTAVYYCAVRSARIERNYWGQGTQVTVSS | low polyreactivity
QVQLVESGGGLVQAGGSLRLSCAASGSTFDPKAMGWYRQAPGKERELVAAISYTGGRTYYADSVKGRFTISRDNAKNTVYLQMNSLKPEDTAVYYCAVLVVGSTTQDEPYFSGVEHDYWGQGTQVTVSS | low polyreactivity
QVQLVESGGGLFQEGGSLRLSCAASGFTFLYYDMGWYRQAPGKERELVAAINSSGGGTYYADSVKGRFTISRDNAKNTVYLQMNSLKPEDTAVYYCAVSWSDGYDYWGQGTQVTVSS | high polyreactivity
QVQLVESGGGLVQAGGSLRLSCAASGSTFSRNAMGWYRQAPGKERELVAAISWRGGRTYYADSVKGRFTISRDNAKNTVYLQMNSLKPEDTAVYYCAAEHKYRYDYWGQGTQVTVSS | low polyreactivity
QVQLVESGGGLVQAGGSLRLTCAASGFTFHNYAMGWYRQAPGKERELVAVIRWRGGSTYYADSVKGRFTISRDNAKNTVYLQMNSLKPEDTAVYYCAKRARGSYYWGYNYWGQGTQVTVSS | high polyreactivity
QVQLVESGGGLVQAGGRLRLSCAASGSIFQFYAMGWYRQAPGKERELVAAINWSGGSTYYADSVKGRFTISRDNAKNTVYLQMNSLKPEETAVYYCNALRRIGRYYKAGGYGYWGQGTQVTVSS | high polyreactivity
QVQLVESRGVLVQAGGSLRLSCAASGSIFYFYAMGWYRQAPGKERELVAAISWSGGSTYYADSVKGRFTISRDTSKNTVYLQMHSLKPEDTPVYYCNAADYWYWENDYWGQGTQVTVSS | low polyreactivity
QVQLVESGGGLVQAGGCLRISCAASGSTFPNYAMGWYREAPGKERELVARISYNVGRTYYADSVKGRFTISRDNAKNTVYLQMNSLKPEDTAVYYCAAGVGWRYRVRWYYSLGDYWGQGTQVTVSS | high polyreactivity
QVQLVESGGGLVQAGGSLRLSCAASGSIFGYYAMGWYRQAPGKERELVAVITRSGGSTYYADSVKGRFTISRDNAKNTVYLQMNSLKPEDTAVYYSNAKSDYGYKMYYWGQGTQVTVSS | high polyreactivity
QVQLVESGGGIVQAGGSLRLSCAASGRIFTRYVMGWYRQAPGKERELVAAITGRGTTTYYADSVKGRFTISRDNAKNTVYLKMNSLKPEDTAVYYCAATYYASNPQFTTNYGYWGQGTQVTVSS | high polyreactivity
QVQLVESGGGLVHAGGSLSLSCAAYYAMGWYRQAPGKERELVAAIDDCTSTNYADSVKGRFTISRDNAKNTVYLQMNSLKPEDTAVDYCNKLSEVTYYGSKFDYWGQGTQVTVSS | low polyreactivity
QVQLVESGGGLVQAGGSLRLSCAASGRTFKHNAMGWYRQAPGKERELVAAINQSGSSTYYADSVKGRFTISRDNAKNTVYLQMNSLKPEDTAVYYCAAGVFFFTFDYWGQGTQVTVSS | low polyreactivity

— the nanobody polyreactivity screen of Harvey et al. (2022)
